Measurements from the DeepSol protein solubility set.

assay: soluble on expression in E. coli; label from the status in PepcDB or PDB records

| Sequence | soluble on expression in E. coli |
| --- | --- |
| MKLTIHEIAQVVGAKNDISIFEDTQLEKAEFDSRLIGTGDLFVPLKGARDGHDFIETAFENGAAVTLSEKEVSNHPYILVDDVLTAFQSLASYYLEKTTVDVFAVTGSNGKTTTKDMLAHLLSTRYKTYKTQGNYNNEIGLPYTVLHMPEGTEKLVLEMGQDHLGDIHLLSELARPKTAIVTLVGEAHLAFFKDRSEIAKGKMQIADGMASGSLLLAPADPIVEDYLPIDKKVVRFGQGAELEITDLVERKDSLTFKANFLEQALDLPVTGKYNATNAMIASYVALQEGVSEEQIRLAFQHLELTRNRTEWKKAANGADILSDVYNANPTAMKLILETFSAIPANEGGKKIAVLADMKELGDQSVQLHNQMILSLSPDVLDIVIFYGEDIAQLAQLASQMFPIGHVYYFKKTEDQDQFEDLVKQVKESLGAHDQILLKGSNSMNLAKLVESLEN | soluble |
| MKLTKTLLTTALFGASIFSFQSTAWADTPEQQFQQGLTAYEQSDYQTAFKLWLPMAEQGYAQAQGGLGMMYERGLGVKQDDFKAVNWYRKAAEQGDADAQLNLGAMYAIGHGVKQDGVEAVKWFRKAAEQGNAKAQNGLGMMYRGRLGIKQDYFKAVKWYRKAAEQGYGGAQVMLGFSYLSGKGVQVNKSLAKEWFGKACDNGEQVGCEYYSKLNRGER | not soluble |
| MKLVFYGAGNMAQAIFTGIINSNNLNANDIYLTNKSNEQALKSFAEKLGVNYSYDDEALLKDADYVFLGTKPHDFENLANRIREHITNDNRFISIMAGLSIDYIRQQLNTNNPLARIMPNTNAQVGHSVTGISFSNNFDPKSKNEVDELINAFGSVIEVSEEHLHQVTAITGSGPAFLYHVFEQYVKAGTELGLERNQVEESIRNLIIGTSKMIERSDLSMSQLRKNITSKGGTTQAGLDALSQYDIVSMFEDCLGAAVNRSMELSHKEDELEHHHHHH | soluble |
| MKLWSGGIQRDQNADSTVAFVKRDIEAEIYLMKYEILSLIAYHLDLAQRRLITEAESKCIINSLISLLQDSPKIDPEQEDAHTAVENAVIERCGDMGRNVRLFLSRNEQVHANVLMFTIERCHSIISILLDSIKVLKGADLKGLLPGTTHFMPAMPVTAATYSNYIENSLALAIRSIDRSLADASVLPYGYGSGYGSPNSGKLKVMSEMLGIGPVLKNPMIASSLYQFTIMQISNSIAGLSITLSRIAMDLIEYYRDGYVSLSDEFTTGSSLMPNKRNPDYLELLQGMAAVSSSVAVMSAMATMNKTSGYHRDFQMLKDSYIDMLNYIEEALLRLPDLFKGLRFEITDPMMLPGSIFATGNAWEDFANTHDWKQSYANIGRKIREKQDLKRYMPEDYVDIVEMHYLEEIEKKYGEILKKWDYLIEKAEAYISE | soluble |
| MKMFLAQKGVPFEFVNAREDEEARKKVTALAGSPTAGVVLEWEGGTEVIRGVSPASLHAWLARYRGKEA | soluble |
| MKMKYEWRKQEKTTYATKKQPQLLTIPAQTFMSIHGTGNPNGPEFQTHLQTLYPAAYGLKHAYKQYAQTQACEFDDYVVFPLEGVWSLTIKGQQLDHLDKDEFSYDIMIRVPDFVPNELIAPALAAVKAKKQLPTEQINVQQFDAMQVAQILHLGAYDDEPASFAKIDELVANQGMHRTSKIHREIYLSDARRVAPDKLKTILRYRVASN | not soluble |
| MKMMDANEIISFIQKSEKKTPVKVYIKGDLKEVTFPETVQAFVNKKSGVLFGEWSEIKTILDENSKYIVDYVVENDRRNSAIPMLDLKGIKARIEPGAIIRDHVEIGDNAVIMMNATINIGAVIGEGSMIDMNAVLGGRATVGKNCHVGAGAVLAGVIEPPSAKPVIVEDDVVIGANVVVLEGVTVGKGAVVAAGAVVTEDVPPYTVVAGTPARVIKEIDEKTKAKTEIKQELRQLNPEK | not soluble |
| MKMTLPFKPHVLALICSAGLCAASAGLYIKSRTVEAPVETQSTQLAVSDAAAVTLPATVSAPPVTPAVVKSAFSTAQIDQWVAPVALYPDALLSQVLMASTYPTNVAQAVQWSHDNPLKQGDAAIQAVSDQPWDASVKSLVAFPQLMALMGENPQWVQNLGDAFLAQPQDVMDSVQRLRQLAQQTGSLKSSTEQKVITTTKKTVPVTQTVTAPVIPSNTVSTANPVITEPATTVISIEPGNPDVVYIPNYNPTVVYGNWANTAYPPVYLPPPAGEPFVDSFVRGFGYSMGVATTYALFSSIDWDDDDHDHHHHDDDNYHHHDGGHRDGNGWQHNGDNINIDVNNFNRITGEHLTDKNMAWRHNPNYRNGVPYHDQDMAKRFHQTDVNGGMSATQLPAPTRDSQRQAAASQFQQRTHAAPVITRDTQRQAAAQRFNEAEHYGSYDDFRDFSRRQPLTQQQKDAARQRYQSASPEQRQAVHEKMQTNPQNQQRREAARERIQPASPEQRQAVREKMQTNPQIQQRRDAARERIQSASPEQRQVFKEKVQQRPLNQQQRDNARQRVQSASPEQRQVFREKVQESRPQRLNDSNHTARLNNEQRSAVRERLSERGARRLER | not soluble |
| MKNESIKIFQKKKQVILEKWITIQSQDQGLNNDLITNEDLRVQSEELLYTFIDNLTDNNIENPDSRDFENVLDILSSISISRAKQGYSPRETGFYVYSLKEALLSVLNEEIKDSSVLYTQSMAINKLLDSFTISTFETFIKGREDVIFRQTDEITQISTPVIRVWDGILALPIIGTLDSSRTQVVMESLLQEIVDTGSSIAILDISGVPAVDSLVAQHLIKTVSATRLMGAECIISGIRPEIAQTVVHLGIDLSTIITKATLASALKTAFVMLNLEVNKKQRNKTV | not soluble |
| MKNGEQNGPTTCTNCFTQTTPVWRRNPEGQPLCNACGLFLKLHGVVRPLSLKTDVIKKRNRNSANS | soluble |
| MKNIIIIGANGFTGRQILNDLSSKAQYKVTGCSLHPDILPKNGGNYHFITTDIRDEAVVKQLFKDVQPDVVINCSALSVPDYCETHHEEAWLTNVTAVEQLAHLCESYKSRFIHLSTDFVFDGKIDEKSGQLYTEKSLPAPVNYYGFTKWKGEEKVTEICSNYAIARVEIVYGKALPGQHGNIVQLVMNRLNAGQEIRVVSDQWRTPTYVGDVSAGVQHLVENAANGIFHICGEECLTIAEIAFQVADYMKLDRSLVHPATTEEMQEATPRPRFSGMSIAKARTILGYQPRKLKDILMEWKH | not soluble |
| MKNKLLYKLRSGKNPKFIYYSVNALRLIIPKGIFRLRLQGKLSSLSRRKDKEYIEHRVDYYNKLSGTVQLPSSAPHLSEHKMSKQKVYFFDTYQYTRWFSDQFQWGFCPGDVTFVPDYPSIVKSRPLTDDNVNSIVMKLDKVRHFIFVDDKKAFTEKKNMVIFRGKVKGKPSRKLFMEMYFHHPMCDLGDVSKNTTDPAEWRTEKKTINEHLDYKFIMALEGIDVASNLKWVMSSNSIAVMPRPTCETWFMEGTLIPNYHYIEIKPDFSDLEERLNYYIEHVDESLEIINHAHEYVSQFKDKRRENLISLLVLDKYFKMTGQKSLEHHHHHH | soluble |
| MKNTKLLLAIATSAALLTGCQNTHGIDTNMAISSGLNAYKAATLSDADAKAIANQGCAEMDSGNQVASKSSKYGKRLAKIAKALGNNINGTPVNYKVYMTSDVNAWAMANGCVRVYSGLMDMMNDNEIEGVLGHELGHVALGHSLAEMKASYAIVAARDAISATSGVASQLSRSQLGDIAEGAINAKYSRDKESEADDFSFDLLKKRGISTQGLVGSFEKLASLDGGRTQSMFDSHPPSTERAQHIRDRIASGKLEHHHHHH | soluble |
| MKPAYFISDLHLSEKQPELTALLLRFLRSSAAGQARAIYILGDLFDFWVGDDEVSELNTSVAREIRKLSDKGVAVFFVRGNRDFLIGQDFCRQAGMTLLPDYSVLDLFGCKTLICHGDTLCTDDRAYQRFRKIVHRKRLQKLFLMLPLKWRTRLATKIRRVSKMEKQVKPADIMDVNAAFTARQVRAFGAERLIHGHTHREHIHHENGFTRIVLGDWHNDYASILRVDGDGAVFVPLEKY | not soluble |
| MKPIACLFAAFAALPVLAHAQTVQMPDVLAAEHALSLGKPVTATIDLTRCTGDTATTPAGTTRGGVTVNPYRIQPDNTLSFSDTHFTVRSDGTPITQFLRYSIDTSGTARFSSYIFAMPAYTLQSQVSYTCKLGEGVKLFARFLEHHHHHH | soluble |
| MKPQWQQYIQIINQVVKPALGCTEPIAAAYAAAVARTLLNDDPDSIAVQVSDNLYKNSMGVYVPGTGKIGLAIAAAAGALAGNADAGLEVLASVTPEQVAQAQALIDAAKVKVERTETDEFIYCCVTLTSGEQEAMVKICGGHTLIAEKRLNGELVFTADNAQAKATGSICDGVDINIESIYRFAEEVPFEEIQFILKASELNSKLSDEGMSKPYGLEVGRTMKNGIAAGIIGEDLLNKIVMLTAAASDARMGGANLPAMSNLGSGNQGIAATIPVVITAQCYKVSEEKLARALIMSHLGAIYIKSHYPPLSAFCGNTVTSAAASMAMVYLAGGSFEQSCFAIQNVISDSSGMVCDGAKASCAMKVSTSSSAAVRSFLMALSSQNVSGQGIIANHVEKTIKNIGKMVLNGMSSTDVTIINIMSE | not soluble |
| MKPRQRQAAILEYLQKQGKCSVEELAQYFDTTGTTIRKDLVILEHAGTVIRTYGGVVLNKEESDPPIDHKTLINTHKKELIAEAAVSFIHDGDSIILDAGSTVLQIVPLLSRFNNITVMTNSLHIVNALSELDNEQTILMPGGTFRKKSASFHGQLAENAFEHFTFDKLFMGTDGIDLNAGVTTFNEVYTVSKAMCNAAREVILMADSSKFGRKSPNVVCSLESVDKLITDAGIDPAFRQALEEKGIDVIITGESNELEHHHHHH | soluble |
| MKPTTRSASKRANAESSGVNQPEKKSRIPETEIVEDPLEIEVPPASADGTDNKSFSENEYDDDHSSSSDEESDDEYVVETHKSSMVDAAESSEGERPDERIVRELEQKIARGLKNDRILKKKKKALDGEVSDTEDVVCEYEPQAMPKQRRRRLYRRKMTRPQGVPKRRRIKRPDLELADDYTCDTFAEQGLTLKSLTSDIKQDDPEVDWKAMRRMGIGIRSTKRDEINSDEDEADIISHSFSFYQTRNSKEQVAQAVELNMNPFSEKIASYNAPKSVHGYSRSSIQNQHSGFIDKNDIKYPDELLWQEPFTHLVFFQSTFNAHESSIKFLNNVANSKKQERDSKLMKEIRERIKQKSLGHVDVPIDYTNVESTSEQPSTIDQYSLPDLTSQCDEGTIKEEEDFDYLMVDAEF | not soluble |
| MKQRPIPRPQTDTTAALQALADALACLRNSATVLAFLRDLCTPAELEALADRWRVVPLLLQGRPYRDIHDHTGISVTTIGRVARCLEHGTGGYAAVLQAQAMPPASSIEKPQ | not soluble |
| MKRESVLFQAARKHHLNLLFPLFRANTSASYPVSRFISRPITVLSKGFAKGFFCIKKETVDKIQQFFFDKWAIEERRYHQLLSILLPGLKNGNLASVEQYLGAKRIEAYAAVPYVAGRWELDDASLPQGAVVVLTCEGVLYSWETYRLERYISAAMANDRISGVVLFVNGPGGMITRVDVLEKLIRQSPKPIVAYITGVCASAHFWFVSACARRFVSSPMDEIGSCGVVYTFQSFKEYYAQMGIEIEDIYPDSADLKNRAYRDKEEKQDDTLIKENLSFYHHLFAQTIARNLGVKYDAQDPLFRGQTFFADTALAKGYVDAYGSLEDAILWVSAQKTVKRANKMILEHHHHHH | not soluble |
| MKRIQEIQQNLERLAEMDEHLEQCEEWNVVAQEIVQKLSTIRKEVERSAAPTPLLLTPPGSCGSGSIYSDISSEMTNVYTEAVEAYDQQIYSRCVRLVEGANRESPVDMCLISLAHHSYAEMVNAASGSDDAMKFAKWWAEFLDSVEAGRGHSEKIELLDYEAVAYEKIVKLGGVADVEKLIEVVVRSYEMVTLLNRPYHILSLQKLFRLTNVLSSSEVDLESDAFSSAKTVVLTGIQNVLRDRKKFAQLGKFNEHNMKIAMRRTAQPDFRVRYCEKR | soluble |
| MKRRKQSRRWRGKKYAPVMIGMLVLLMNLADLKISNLISGSIICQAAERQSENTETENNSGGTEKEKITQTEASTVSDILEELDLSRVQRMLDQMLGEESFSMKDMLDGLIKGEKVLSEDTVQEMVHSFLFSGLEKEKS | not soluble |
